Measurements published in the DeepSol protein solubility set.

Test: soluble on expression in E. coli; label from the status in PepcDB or PDB records

Sequence | soluble on expression in E. coli
MGHHHHHHSHMDDKKKKRSPKPCLAQPAQAPGTLRRVPVPTSHSGSLALGLPHLPSPKQRAKFKRVGKEKCRPVLAGGGSGSAGTPLQHSFLTEVTDVYEMEGGLLNLLNDFHSGRLQAFGKECSFEQLEHVREMQEKLARLHFSLDVCGEEEDDEEEEDGVTEGLPEEQKKTMADRNLDQLLSNLEDLSNSMYPFQGTRLCVCVPERSVSSSPALQEYSHTTNFPTSCSPVRFSHRLPKPRYRNLEFPQN | not soluble
MGSDKIHHHHHHAIVSAKWERTSSLQGIQLKQASIEGLFGGKQSISILTIGRAEGYTAFIATTDSLTTTSQLAEQSRSSAAINGSYFSIKEGFSTCYLRKNEAVIDTTTTEERHLRVNGAVHMVDNNIRIIPWNDENEKKGFPLDGDILASGPLLMQDGKTCDFTTIDREFSETRHPRSAIALTKEGDIMLVAVDGRAEGHADGMSIAELAYLLRILKAHCALNLDGGGSTTLWVNGQVVNHPSDNKKFDNKGERKVHNIIAVRRLTNP | not soluble
MGSDKIHHHHHHMHTQVNELFSELWQNYVSVTPSAAKIHALLGSSQQDDVQNDHIALRTFNIEKINLDKLAAHFLALGYKENGEYHFEAKKLYAKHYEHPDPTQPKVFISELLLEKCSPELQAIVHKLVDQIDVAAVTADNFLYSGRHWSIDQATYNTLVKESEYAAWVSVWGFRANHFTVSVNALKNFETLVSVNDTLKAAGFALNTSGGEIKGSQEVMLKQSSTLADEALVEFTDGSKMVPSCFYEFARRFPMADGTLYPGFVAASADKIFESTNAR | not soluble
MFISCFDMFKIGIGPSSSHTLGPMKAGKAFVDTLEERDLLDRVTRVRADVYGSLSLTGIGHATDKAIIMGLAGFEPETVDIDAMPGFLEIVASLQRLALAGGKKTVDFSRTEGIVFHNTCLQLHENGMTITAFEGDEVLLTKAYFSIGGGFIVDKEHFGLPVEDTAVVPFPYNTAEEVLAHCDREGMSIPEFAWRNEVAANGEEAVREHLAKVWKVMQSGIERGSSAEGILPGDLRVPRRAKALRERLEATSENEPLRMMSWLNMFAMAVNEENASGGRVVTSPTNGACGVLPAVLSYWDRLVKPVGEQEVIDYLLTCGVVGALYKKNASISGAEVGCQGEVGVACSMAAAGIAQLMGATPAQAFAAAEIAMEHNLGLTCDPVCGQVQVPCIERNAIAAVTSVNAANMSLQRGSTPTVSLDQVIQTMYQTGKDMDSKYRETSLGGLAKVLMPRLMPCS | not soluble
SLKEVLDEKFPSNNKLEVGLGRDISGDPITVPLNEMPHLLVAGSTGSGKSVCINGIITSILLNAKPHEVKLMLIDPKMVELNVYNGIPHLLIPVVTNPHKAAQALEKIVAEMERRYDLFQHSSTRNIKGYNELIRKQNQELDEKQPELPYIVVIVDELADLMMVAGKEVENAIQRITQMARAAGIHLIVATQRPSV | not soluble
MKRISPLRSLVACRWTNRARKRLAAVGLASICLLSACAPKFDKGEEVVQDKGSKQQEAVIPKYNIADSYYRVILPFKPSGARGEVVNDLNTRLDVDEFETGLMRLATEQFPSDEYLFQEGQYLDSETVGKWLARKKTTRQLKEEKMKPEDNLGLNPPISDTGTNEQKNKQSPIYLASILEHDYLVKIDNDKVKLGGIAIGLALNSVHYYSTEQGYPREVKIKDDVIEREGKRIAAEVLKRLRSMKGLGSVPITIALYKQAPRSSVVPGHFFAVAHVDGGDSTIDEWEAVNEEYYLFPSDEAEENHRDDWLKFNNFKSDVEDFFPNYTGIVGRGLYVNDQLQKLTINITMPFYGKAEVIGFTQYVTGLVMEKFPDYITVNVYIASAGQPESLIVRQAKADEPFVHIYQ | not soluble
MSLESRFCDICGKPAKTYQFGSLLCEDPECLKKAQKLRGGPAGHKLRVISVGSTNPVKVSAVEKAIEKTVGTMLVSSVDTKSGVSDQPQGFEETFKGAYNRAKGAFEKVNCVYGIGIEAGIVEIGEKKLDIHICVVYNGLDYSVGTSQAFQIPKDISDMINEGYECSKIAEETYRVKNIGQKNGIIGVLTDNNILREQLCIDSVVMAMIPKYRRNSQIREGHHHHHH | soluble
MSLESTNRLRYLIAGTGGVGGSIAGFLSLAGKDVTCIARGAHLQAIQQDGLKLKSDLKGEHALRINACTAEEYNGKADVIFVCVKGYSVDSITELIKRAAHDRTIVIPILNVYGTGPRIQRLVPGVTVLDGCIYIVGFVSGPGEITQMGTIFRLVYGAHRGILVPAGLMEAVQRDLQESGIKVEISSDINRDTFIKWSFISAMAVTGAYFDVPMGEVQKPGKVRDTFIGLSTESAALGKKLGIEFKEDIVTYNLKVIDKLAPESTASMQKDIARGHESEVQGLLFDMITAAEEQGIDVPTYREVAKKFIKQEGHHHHHH | soluble
MGSDKIHHHHHHMQSRMHPRYYLSLEIFEREQKKIFRKAWLFAGLKTLLSEHNAFITRRIAGIPIVIQNFHGELRAFENVCLHRNALLQTEAVGKRPLVCAYHAWRYDAEGRVDHIPECDAVYRFSAEEKQGLKLRRFALHAVGNVLFINLDTDPLPFEEQFTPAFIDLLESSSNTYDTEVMVTTWHGKFNWKLAYENLRDANHPRFVHPKSLAKTVKFTPTVDEALFRESGLQLTDTSPSALRREMRRFSHAGADAPIPDLQHFGWHELVERWGDQDSYYNWLAFPNLHIASANGGFSFTLEHHIPIAPDRTDLEIYWFTARKKQAYAFSHQVLLAQMHGSKLVVGEDVEIMEQVQAALHADAPLPNQGAYESSNRLVERWYTTLMDGDHDI | not soluble
MGSDKIHHHHHHMVHVKMKGSKMLFEALLKEGVDTIFGIPGGAIINVYDELCNYEDKINFYLFRHEQGATHAADGYARVTGKPGVVIVTSGPGATNTVTGIATAYMDSIPIVVITGQVPTSFIGTDAFQEVDVTGITMPITKHNHLVTSIEELPYAIKEMFYVATTGRPGPVLLDFPKDIQTAEGEFNYPDTVEIPGYKPTVKGHPKQIKKAVELLKESKRPVVIVGGGANLSGAMDLVNQFIDKFKVPAVSTLMGRGVNPSDEKLYYEGIGMHGTYYGNYAVANADLIIALGVRFSDRILGNPRTFAKNARIVHVDIDPAEIGKNVRVDVPIVGDLKSVLEEFLKYEIETDFSDWIEELQEIKKKYPLTYKRDGKLIKPQYVVEKVNEVFPDDTVVVADVGQNQMWVAQFYKFKHQRSFLCSGGLGTMGYALPAGIGAKIGAPDKEVVVFAGDGGFQMNIQELMTIKRYNLPVKIIVMDNKALGMVRQWQQLFFNCRYSATILSDNPDFAKIAEAVGIKAMRIEKPDQVDEAIEKLAKSKEPMLIHAVVDPAENVLPMVPPGGDVGTPLIEAPYDETFVERVLKVIEESRRGDER | not soluble
MEVKALAHAKNDSVAVATDDLKEGEEIQVAFLDNNEKTKITTAEVIPLGHKISLKDIKKGENVIEYGEVIGAATKDIKRGEHVHIHNIKSLRW | not soluble
MGSDKIHHHHHHMRVDVMVIGAGAAGMAAALKAKEEGAEVLLVERDERTGGILNQCIHNGFGLHYFRQELTGPEYAERFQEKMEKMGIRALTNAYVKRVEDRRVILVTEQGIEEVEVGALVYATGARERPFGSLMIPGDRPSGIFTAGVAQRLINIENRLPGKRALILGSGDIGLIMARRLTLEGMEVVGVVERLPYAGGLLRNVIQCLEDYNIPLYLSSTVVEVRGRERLEEVVVAKVDEQFRPIPRTERVFKVDTLVLSVGLIPQVELIENLVVKNPTSRGVGVSNIGQTSRDWIFSAGNCTVIFDLVDYVSYEGETAGRYAAKFVKGEIPREKIPVRPGKNVMVVHPIWYTPAEPLTLYLRVKKPMEKGRLVVGRFAREFEDLVPSEMLRVKISDRDLEGLDEIVVSVEEVN | not soluble
PKTGPTMTKELVFSSNIGQHDLDTKSKQIQQWIEKKYHVQVTIKRRKDAEQSEEETEEIFNQILQTMPDIATFSSRPKAIRGGTASMCVFRHLSKKEEK | soluble
MAKKMKLSDITNMFAGMDVEALEGVTIEGDIEIDLGGLGGGFDPMLAAALGQESAVLAQHFARIAGMFGYPVGIGAPAAPAISPALAAPKLKDLIPAKFDVANIAEWATQIQEVPIGNTSADGGSRGKRVLVGGEKALPFFPDAPMPNRNQVTIDVFDMRIGLAKAVKENYDEVMDSPGEWAKKNVEKFNADMITIHLISTDPLVKDTPPKEAAKTVEEVLQAVDVPIAIGGSGNPQKDPEVLARAAEVAEGERCLLASASLNLDYAAIAEAALKYDHDVLSWTQLDMNAQKELNRKLMKQCNVPRDRIIMDPTTAALGYGLDYAYTNMERIRLAALMGDDELTFPMSSGTTNAWGARESWMVGSPLKEDSDWGPREYRGPIWEIVTGLSLAIAGNDLFMMMHPTSVAVLKQITQTLFGTIDTEQVDIANWIGAEV | not soluble
MSLTQAATRPTNDAGQDGGNNSDILVVARQQVLQRGEGLNQDQVLAVLQLPDDRLEELLALAHEVRMRWCGPEVEVEGIISLKTGGCPEDCHFCSQSGLFASPVRSAWLDIPSLVEAAKQTAKSGATEFCIVAAVRGPDERLMAQVAAGIEAIRNEVEINIACSLGMLTAEQVDQLAARGVHRYNHNLETARSFFANVVTTHTWEERWQTLSMVRDAGMEVCCGGILGMGETLQQRAEFAAELAELGPDEVPLNFLNPRPGTPFADLEVMPVGDALKAVAAFRLALPRTMLRFAGGREITLGDLGAKRGILGGINAVIVGNYLTTLGRPAEADLELLDELQMPLKALNASLEGHHHHHH | soluble
MGSDKIHHHHHHMLGTLKKLRAHLDEAQQVQYQLVVGEELLPLNPLIGQPLTLTHTGNIFCCNCGKKTKKSYSQGHCFVCMQKLASCDMCIMKPETCHFDQGTCREPEWAQSHCFVPHYVYLSNTSGIKVGITRHTQLPSRWIDQGATQGLPIFKVATRQISGLVEVELAKLINDKTHWQAMLKGHADDIDLQAKAAELIPHIEAKLHEIGMQKGNYSIERLQENIQTIHYPIEVFPKKITSHNFDKEAVVSGILQGIKGQYLLFDTGVINIRKFTAYEVSVTLTG | not soluble
MDCNGSGGSSDDDKPLHHDGGVRMKFFRSVGEVFGYSPFRSLAQHARMCGRAVGLLQQQFEALRRGNYEEVEELREEIDELEHHADQIKEEIRGNVTKSLMLPVDRHDLLEFLKVQDDILNNCEHVGHMVTFRKVSAPEDVWDEFLVLLSKLMEIVNNYEEMVERIMQLVETSFSKKEVNRALEYVPIIEQLEHECDLIQIGLHTKLFNLENSNPLDIQLMVTWVVHLGYVANAAARASDRFRIMILGR | soluble
MKRLTERVIIMKGAGEMATGVACRLHRSGFRRILMLEAPSPLAVRRGVSFCEAIHNGRKSVEGIEAVRIENGSALADAWGKGEIPLLADPQGDAVRRMEPDILIDATIAKRNLGIAITDAPLVIALGPGFFAGRDCHLVIETNRGHNLGRLIACGEAEPNTGIPGNIGGYTRERVLRAPADGHFTTEKVIGDQVSKGDVVGIVGTNTVTASIDGILRGLIRPGTHVTTGLKIGDIDPRGDTAYCHTISEKARALGGSVLEAILTVYNQLEHHHHHH | not soluble
MAPVTPDAVNARQQRPADPALRRLMHPHHRNYTASKASAHSVKSVSRCGKSRSELGRMERVGSVARSICSRHTRHGVDRSHFSLRDFFRGISANFELGKDFLREMNTPIHVSEAVFLPLSLCTLSPGRCLRLSPFGHSLTLGSHCEICINRSQVHVPQEFSSTQLSFFNNVHKIIPNKTFYVSLLSSSPSAVKAGLSQPSLLYAYLVTGHFCGTICPIFSTNGKGRLIMHLLLQGTSLHIPETCLKLLCENIGPTYELAVDLVGDAFCIKVSPRDTVYEKAVNVDEDAIYEAIKDLECGDELRLQIINYTQLILENKQ | not soluble
